± gives the standard error. Fewer inactive variants are shown than the library holds.
B1: glmS ribozyme (parent)
chain: AUAAAAGCGCCAGAACUACAGAAAUGUAGUUGACGAGGAGGAGGUUUAUCGAAUUUUCGGCGGAUGCCUCCAAA

Variants of: B1
Assay: self-cleavage kobs at 2500 uM GlcN6P; higher = faster cleavage; RNA array
Details: with glucosamine-6-phosphate
Outline: (§1)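 Barcoded ribozyme variants were transcribed in situ on sequenced MiSeq chips by E. coli RNA polymerase. At 37 °C, a hybridised Cy3 probe tracked them while glucosamine-6-phosphate (40 μM to 10 mM) in HEPES/KCl/Mg(OAc)2 buffer flowed in and tiles were imaged over ~14 h. Per-tile medians of signals normalised to baseline and to non-cleaving reference variants were fit to one- or two-exponential decays, giving kobs. kcat and KM came from weighted Michaelis–Menten fits across concentrations.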

G7U G35C G43A A48G and G9C A42C A48C C58G C71G cannot be ordered by “self-cleavage kobs at 2500 uM GlcN6P” value: less than 1e-05 s⁻¹ for the first, less than 1e-05 s⁻¹ for the second.

C8A G35A G38A A53G and G7C G32U U45C U49C cannot be ordered by “self-cleavage kobs at 2500 uM GlcN6P” value: less than 1e-05 s⁻¹ for the first, less than 1e-05 s⁻¹ for the second.

G9C C10U A36U A48U C71G and C8U U54A C58G cannot be ordered by “self-cleavage kobs at 2500 uM GlcN6P” value: less than 1e-05 s⁻¹ for the first, less than 1e-05 s⁻¹ for the second.

C8G A42U U49C A52G and G9U C11U G29U A52U cannot be ordered by “self-cleavage kobs at 2500 uM GlcN6P” value: less than 1e-05 s⁻¹ for the first, less than 1e-05 s⁻¹ for the second.

G7C G37A G63U and C8A C58U A64U C67G cannot be ordered by “self-cleavage kobs at 2500 uM GlcN6P” value: less than 1e-05 s⁻¹ for the first, less than 1e-05 s⁻¹ for the second.

G9C A48G C67U and C8U A33C U45A A52U cannot be ordered by “self-cleavage kobs at 2500 uM GlcN6P” value: less than 1e-05 s⁻¹ for the first, less than 1e-05 s⁻¹ for the second.

G9A U31C A52U and G9U C11G A12G A48U G51C cannot be ordered by “self-cleavage kobs at 2500 uM GlcN6P” value: less than 1e-05 s⁻¹ for the first, less than 1e-05 s⁻¹ for the second.

C8A G13C U65C and G7U A52U U55C cannot be ordered by “self-cleavage kobs at 2500 uM GlcN6P” value: less than 1e-05 s⁻¹ for the first, less than 1e-05 s⁻¹ for the second.

G9C C16G G29U and G7A G41C U45C U47C cannot be ordered by “self-cleavage kobs at 2500 uM GlcN6P” value: less than 1e-05 s⁻¹ for the first, less than 1e-05 s⁻¹ for the second.

G7A G13A C34U and G9C G40U G51U A52U cannot be ordered by “self-cleavage kobs at 2500 uM GlcN6P” value: less than 1e-05 s⁻¹ for the first, less than 1e-05 s⁻¹ for the second.

C8U C11G G13C and G7C G51U A53U G60U cannot be ordered by “self-cleavage kobs at 2500 uM GlcN6P” value: less than 1e-05 s⁻¹ for the first, less than 1e-05 s⁻¹ for the second.

G9A G13C A33C G38C C61U G63U G66C and C8A A14G C68U C70G cannot be ordered by “self-cleavage kobs at 2500 uM GlcN6P” value: less than 1e-05 s⁻¹ for the first, less than 1e-05 s⁻¹ for the second.

G7A C10G G37U and C8G G37C G43A G59A cannot be ordered by “self-cleavage kobs at 2500 uM GlcN6P” value: less than 1e-05 s⁻¹ for the first, less than 1e-05 s⁻¹ for the second.

Going from C8G A12G G51U C58U C67A C68U to G9U A12C A14C A48G U49A, the “self-cleavage kobs at 2500 uM GlcN6P” value falls from 0.000214 ± 7.9e-05 s⁻¹ to less than 1e-05 s⁻¹.

G9C C16G A39G and C8A C10G A39C cannot be ordered by “self-cleavage kobs at 2500 uM GlcN6P” value: less than 1e-05 s⁻¹ for the first, less than 1e-05 s⁻¹ for the second.

G9A A14C G43U U46A and G9C A14G U69G cannot be ordered by “self-cleavage kobs at 2500 uM GlcN6P” value: less than 1e-05 s⁻¹ for the first, less than 1e-05 s⁻¹ for the second.

G9C C10A G32A and G7U C68A cannot be ordered by “self-cleavage kobs at 2500 uM GlcN6P” value: less than 1e-05 s⁻¹ for the first, less than 1e-05 s⁻¹ for the second.

C8G G38A A48G U57G and G7A G9C A36C cannot be ordered by “self-cleavage kobs at 2500 uM GlcN6P” value: less than 1e-05 s⁻¹ for the first, less than 1e-05 s⁻¹ for the second.

G7A C10A A48G and G7U A33U G35C G44C U45G G66U cannot be ordered by “self-cleavage kobs at 2500 uM GlcN6P” value: less than 1e-05 s⁻¹ for the first, less than 1e-05 s⁻¹ for the second.

G9C A15U U47G G51C G63C and G9C C10U A15G U69G cannot be ordered by “self-cleavage kobs at 2500 uM GlcN6P” value: less than 1e-05 s⁻¹ for the first, less than 1e-05 s⁻¹ for the second.

G7U C16U A36G G37U G41U C61A and G9A G29C G37U A48G A52C C70G cannot be ordered by “self-cleavage kobs at 2500 uM GlcN6P” value: less than 1e-05 s⁻¹ for the first, less than 1e-05 s⁻¹ for the second.

Going from G7A C50G G63C to C8U U54G A64U U65G, the “self-cleavage kobs at 2500 uM GlcN6P” value falls from 0.000242 ± 7.3e-05 s⁻¹ to less than 1e-05 s⁻¹.

C8U G35A G63U and G9C U45G C50U G59U cannot be ordered by “self-cleavage kobs at 2500 uM GlcN6P” value: less than 1e-05 s⁻¹ for the first, less than 1e-05 s⁻¹ for the second.

G7C C11A C16U and C8G C11A A33U G44A C58U cannot be ordered by “self-cleavage kobs at 2500 uM GlcN6P” value: less than 1e-05 s⁻¹ for the first, less than 1e-05 s⁻¹ for the second.

G9U A33G A53C and G9C G59C G63U cannot be ordered by “self-cleavage kobs at 2500 uM GlcN6P” value: less than 1e-05 s⁻¹ for the first, less than 1e-05 s⁻¹ for the second.

G7U G41A U47G C71G and G7U G13U A42U G44C cannot be ordered by “self-cleavage kobs at 2500 uM GlcN6P” value: less than 1e-05 s⁻¹ for the first, less than 1e-05 s⁻¹ for the second.

C8U G13U G59U and G7C A33C A36C G66U cannot be ordered by “self-cleavage kobs at 2500 uM GlcN6P” value: less than 1e-05 s⁻¹ for the first, less than 1e-05 s⁻¹ for the second.

G9A G29C G38C A64U and G9U A39U A48U C50A U57C G66A cannot be ordered by “self-cleavage kobs at 2500 uM GlcN6P” value: less than 1e-05 s⁻¹ for the first, less than 1e-05 s⁻¹ for the second.

C8U G37U U54G and G7U G32U U54C C68G cannot be ordered by “self-cleavage kobs at 2500 uM GlcN6P” value: less than 1e-05 s⁻¹ for the first, less than 1e-05 s⁻¹ for the second.

G7A G44U A48G and G7A U49A A52C cannot be ordered by “self-cleavage kobs at 2500 uM GlcN6P” value: less than 1e-05 s⁻¹ for the first, less than 1e-05 s⁻¹ for the second.

G7C G13U U31G G37C G59A G60U and G7C U45A G51U G59U cannot be ordered by “self-cleavage kobs at 2500 uM GlcN6P” value: less than 1e-05 s⁻¹ for the first, less than 1e-05 s⁻¹ for the second.

C8U A39G G60C and G7A U31A G44C cannot be ordered by “self-cleavage kobs at 2500 uM GlcN6P” value: less than 1e-05 s⁻¹ for the first, less than 1e-05 s⁻¹ for the second.

G7A G13A C68A and C8U G43C A52U C70U cannot be ordered by “self-cleavage kobs at 2500 uM GlcN6P” value: less than 1e-05 s⁻¹ for the first, less than 1e-05 s⁻¹ for the second.

C8A U46G U55A and G7A G38C A64C cannot be ordered by “self-cleavage kobs at 2500 uM GlcN6P” value: less than 1e-05 s⁻¹ for the first, less than 1e-05 s⁻¹ for the second.

G9C G37C A42U G43C C50U C67G C71A and G9A A15U A48G C70G C71U cannot be ordered by “self-cleavage kobs at 2500 uM GlcN6P” value: less than 1e-05 s⁻¹ for the first, less than 1e-05 s⁻¹ for the second.

G9A G37A G38U and C8U G43U G62C C68U cannot be ordered by “self-cleavage kobs at 2500 uM GlcN6P” value: less than 1e-05 s⁻¹ for the first, less than 1e-05 s⁻¹ for the second.

G7A G32U G60U and C8A G37A A42C cannot be ordered by “self-cleavage kobs at 2500 uM GlcN6P” value: less than 1e-05 s⁻¹ for the first, less than 1e-05 s⁻¹ for the second.

G7A G13A G40C U47G and G9A A33G G43C cannot be ordered by “self-cleavage kobs at 2500 uM GlcN6P” value: less than 1e-05 s⁻¹ for the first, less than 1e-05 s⁻¹ for the second.

C8U C16U G37C A39G U54C and C8G C16A G43U G44U G62A cannot be ordered by “self-cleavage kobs at 2500 uM GlcN6P” value: less than 1e-05 s⁻¹ for the first, less than 1e-05 s⁻¹ for the second.

C8A G13U A53G U65G and G7A G51U U54G cannot be ordered by “self-cleavage kobs at 2500 uM GlcN6P” value: less than 1e-05 s⁻¹ for the first, less than 1e-05 s⁻¹ for the second.

For C8G C10G C70G, the “self-cleavage kobs at 2500 uM GlcN6P” value was less than 1e-05 s⁻¹.

Variants of: B1
Assay: self-cleavage kobs at 10000 uM GlcN6P; higher = faster cleavage; RNA array
Details: with glucosamine-6-phosphate
Outline: as §1

G9C C10U A36U A48U C71G and G9A U31C A52U cannot be ordered by “self-cleavage kobs at 10000 uM GlcN6P” value: less than 1e-05 s⁻¹ for the first, less than 1e-05 s⁻¹ for the second.

G7U A52U U55C and G9C G59C G63U cannot be ordered by “self-cleavage kobs at 10000 uM GlcN6P” value: less than 1e-05 s⁻¹ for the first, less than 1e-05 s⁻¹ for the second.

G7U G32U U54C C68G and C8A U46G U55A cannot be ordered by “self-cleavage kobs at 10000 uM GlcN6P” value: less than 1e-05 s⁻¹ for the first, less than 1e-05 s⁻¹ for the second.

For C8G C10G C70G, the “self-cleavage kobs at 10000 uM GlcN6P” value was less than 1e-05 s⁻¹.

Source: the supplement of paper PMC7125110
